Assay results: patent publication US20090188009A1, “HEAT SHOCK RNA FROM VARIOUS SPECIES AND ITS USE IN ACTIVATION OF HEAT SHOCK TRANSCRIPTION FACTOR, IN TREATMENT OF VARIOUS DISEASES IN ANIMALS AND IN GENERATION OF STRESS-RESISTANT PLANTS” (New York University, published 2009)
One block for each molecule: values may come before it.

How the values were obtained:
[1] = target: purified recombinant mouse HSF1 (heat shock transcription factor 1), released from GST-HSF1 by thrombin cleavage (mouse) (UniProt P38532); assay: cell-based or functional assay
Chain of purified recombinant mouse HSF1 (heat shock transcription factor 1), released from GST-HSF1 by thrombin cleavage (mouse) (P38532 other isoform, or with tags, fused parts or gaps limits assumed): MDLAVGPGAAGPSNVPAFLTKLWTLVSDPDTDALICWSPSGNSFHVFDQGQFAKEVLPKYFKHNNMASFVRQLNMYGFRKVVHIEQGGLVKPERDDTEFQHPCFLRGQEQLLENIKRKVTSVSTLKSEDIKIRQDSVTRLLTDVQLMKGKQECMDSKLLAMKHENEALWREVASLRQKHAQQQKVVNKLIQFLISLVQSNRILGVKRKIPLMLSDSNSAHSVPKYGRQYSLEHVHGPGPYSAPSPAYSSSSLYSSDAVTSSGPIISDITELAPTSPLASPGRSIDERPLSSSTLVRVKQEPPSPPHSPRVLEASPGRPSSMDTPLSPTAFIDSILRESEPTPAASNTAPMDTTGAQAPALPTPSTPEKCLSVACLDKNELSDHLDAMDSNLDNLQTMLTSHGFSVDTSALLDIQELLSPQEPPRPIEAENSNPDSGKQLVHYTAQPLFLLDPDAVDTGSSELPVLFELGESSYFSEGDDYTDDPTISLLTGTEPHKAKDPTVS

HSF1 = HSF1 (Mus musculus, UniProt P38532 P38532:1-525); assay: EMSA; trimeric HSF1 activated by eEF1A plus HSR1 (BHK, HeLa or T3 sense transcript); about 5% of HSF1 activated; 1.5 mM MgCl2, 2 mM DTT; settings: tags: expressed as N-terminal GST fusion from pGex-2T in E. coli, thrombin cleaved; chain copies: 3; label: 32P end
Chain of HSF1 (P38532 whole entry, the tested form may be a part, one chain of several): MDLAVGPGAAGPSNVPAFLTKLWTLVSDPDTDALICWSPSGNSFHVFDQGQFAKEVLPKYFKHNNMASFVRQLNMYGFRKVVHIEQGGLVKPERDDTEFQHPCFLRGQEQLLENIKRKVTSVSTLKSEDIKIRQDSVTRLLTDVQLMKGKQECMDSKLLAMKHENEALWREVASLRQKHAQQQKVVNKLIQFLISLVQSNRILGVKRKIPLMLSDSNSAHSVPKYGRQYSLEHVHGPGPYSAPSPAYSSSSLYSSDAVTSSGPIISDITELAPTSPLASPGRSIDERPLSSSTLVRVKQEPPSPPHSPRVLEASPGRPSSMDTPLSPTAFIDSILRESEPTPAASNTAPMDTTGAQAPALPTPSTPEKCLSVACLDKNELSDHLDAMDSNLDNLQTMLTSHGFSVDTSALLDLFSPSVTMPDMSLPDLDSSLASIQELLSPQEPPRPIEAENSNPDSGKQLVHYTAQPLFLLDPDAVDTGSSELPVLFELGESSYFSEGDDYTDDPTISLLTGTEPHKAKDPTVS
Experimental: cDNAs of HSR1 were cloned from both HeLa and BHK cells (see Methods), and the coding strand was identified in a functional assay (FIG. 5A). As shown in the upper panel of FIG. 5A, the sense (T3) and antisense (T7) HSR1s were transcribed in vitro by T3 and T7 RNA polymerases, respectively, from PCR fragments carrying T3 or T7 promoters on each side of HSR1. The resulting synthetic RNAs were tested in the minimal HSF1 activating system (FIG. 5A, lower panel). For the reconstitution experiment shown in FIG. 5A, recombinant mouse HSF1 was used along with eEF1A purified from rat liver (as described above). HSR1 isolated from heat-shocked BHK or HeLa cells (lanes 7, 8) and HSR1-T3 (lane 10) activated HSF when added together with purified eEF1A. However, neither component alone was capable of activating HSF1 (lanes 2-6). The slight stimulating effect of isolated eEF1A (lane 2) on HSF1 activation results from the residual amount of co-purified HSR1, and could be eliminated by RNAse A treatment. In FIG. 5A, quantitation of HSF1 activation is presented as the fold increase relative to a background control. Under these conditions, about 5% of the total HSF1 was activated.

HSF1 activation (DNA binding to HSE, EMSA) in the reconstituted system [1]: 5%
Molecule: eEF1A purified from rat liver (from UniProt P62630 2-462)

B1: HSE oligonucleotide (dsDNA)
DNA 1: GCCTCGAATGTTCGCGAAGTTTCG
DNA 2: CGAAACTTCGCGAACATTCGAGGC
binding result (HSF1): binds
